Laboratory results reported in PMC7452315, “Alternative Splicing of a Receptor Intracellular Domain Yields Different Ectodomain Conformations, Enabling Isoform-Selective Functional Ligands” (iScience, 2020).

B1: NT-3 (ligand, UniProt P20783 139-257, looked up)
chain: YAEHKSHRGEYSVCDSESLWVTDKSSAIDIRGHQVTVLGEIKTGNSPVKQYFYETRCKEARPVKNGCRGIDDKHWNSQCKTSQTYVRALTSENNKLVGWRWIRIDTSCVCALSRKIGRT
modifications: biotin (NT-3-biotin in the flow cytometry binding assay)
notes: neurotrophin-3, soluble growth factor; also called NT-3-biotin
B2: ectodomain of PTP-sigma (domain or fragment, UniProt Q13332 30-1282, looked up)
chain: EEPPRFIKEPKDQIGVSGGVASFVCQATGDPKPRVTWNKKGKKVNSQRFETIEFDESAGAVLRIQPLRTPRDENVYECVAQNSVGEITVHAKLTVLREDQLPSGFPNIDMGPQLKVVERTRTATMLCAASGNPDPEITWFKDFLPVDPSASNGRIKQLRSETFESTPIRGALQIESSEETDQGKYECVATNSAGVRYSSPANLYVRELREVRRVAPRFSILPMSHEIMPGGNVNITCVAVGSPMPYVKWMQGAEDLTPEDDMPVGRNVLELTDVKDSANYTCVAMSSLGVIEAVAQITVKSLPKAPGTPMVTENTATSITITWDSGNPDPVSYYVIEYKSKSQDGPYQIKEDITTTRYSIGGLSPNSEYEIWVSAVNSIGQGPPSESVVTRTGEQAPASAPRNVQARMLSATTMIVQWEEPVEPNGLIRGYRVYYTMEPEHPVGNWQKHNVDDSLLTTVGSLLEDETYTVRVLAFTSVGDGPLSDPIQVKTQQGVPGQPMNLRAEARSETSITLSWSPPRQESIIKYELLFREGDHGREVGRTFDPTTSYVVEDLKPNTEYAFRLAARSPQGLGAFTPVVRQRTLQSKPSAPPQDVKCVSVRSTAILVSWRPPPPETHNGALVGYSVRYRPLGSEDPEPKEVNGIPPTTTQILLEALEKWTQYRITTVAHTEVGPGPESSPVVVRTDEDVPSAPPRKVEAEALNATAIRVLWRSPAPGRQHGQIRGYQVHYVRMEGAEARGPPRIKDVMLADAQWETDDTAEYEMVITNLQPETAYSITVAAYTMKGDGARSKPKVVVTKGAVLGRPTLSVQQTPEGSLLARWEPPAGTAEDQVLGYRLQFGREDSTPLATLEFPPSEDRYTASGVHKGATYVFRLAARSRGGLGEEAAEVLSIPEDTPRGHPQILEAAGNASAGTVLLRWLPPVPAERNGAIVKYTVAVREAGALGPARETELPAAAEPGAENALTLQGLKPDTAYDLQVRAHTRRGPGPFSPPVRYRTFLRDQVSPKNFKVKMIMKTSVLLSWEFPDNYNSPTPYKIQYNGLTLDVDGRTTKKLITHLKPHTFYNFVLTNRGSSLGGLQQTVTAWTAFNLLNGKPSVAPKPDADGFIMVYLPDGQSPVPVQSYFIVMVPLRKSRGGQFLTPLGSPEDMDLEELIQDISRLQRRSLRHSRQLEVPRPYIAARFSVLPPTFHPGDQKQYGGFDNRGLEPGHRYVLFVLAVLQKSEPTFAASPFSDPFQLDNPDPQPIVDGEEG
notes: receptor-type tyrosine-protein phosphatase sigma, ectodomain; Probably a human Fc fusion, since it was detected with an anti-human secondary; also called PTP-sigma ectodomain; not shown: Fc (human)

What was measured:
[1] = biological target: truncated TrkC.T1 receptor; test: co-IP; HEK293 lysates expressing TrkC.T1, TrkC-FL or TrkC-Δ-ICD; immunoprecipitated with a pan-TrkC antibody; reducing and non-reducing SDS-PAGE; blotted with two anti-PDI mAbs or anti-pan-TrkC
[2] = biological target: TrkC-FL D5 (Homo sapiens) (UniProt Q16288); conditions: cited from earlier work
TrkC ECD (Homo sapiens) = TrkC ECD (Homo sapiens) (UniProt Q16288); conditions: cited from earlier work
[3] = biological target: T1, full-length TrkC (TrkC-FL) (UniProt Q16288 32-839); test: cell-based or functional assay
[4] = biological target: truncated TrkC.T1 receptor; test: flow cytometry on cells; quantitative flow cytometry on live, non-permeabilised cells stably transfected with TrkC-FL or TrkC.T1; ligand at saturating concentration; read-out is fold-increase in mean fluorescence intensity over controls; NT-3-biotin detected with avidin-fluorescein, PTP-sigma with anti-human secondary
[5] = biological target: T1, full-length TrkC (TrkC-FL); test: as above; conditions: one partner purified
[6] = biological target: T1, full-length TrkC (TrkC-FL); test: cell-based or functional assay; remark: listed apart in the source

T1 sequence (Q16288 32-839): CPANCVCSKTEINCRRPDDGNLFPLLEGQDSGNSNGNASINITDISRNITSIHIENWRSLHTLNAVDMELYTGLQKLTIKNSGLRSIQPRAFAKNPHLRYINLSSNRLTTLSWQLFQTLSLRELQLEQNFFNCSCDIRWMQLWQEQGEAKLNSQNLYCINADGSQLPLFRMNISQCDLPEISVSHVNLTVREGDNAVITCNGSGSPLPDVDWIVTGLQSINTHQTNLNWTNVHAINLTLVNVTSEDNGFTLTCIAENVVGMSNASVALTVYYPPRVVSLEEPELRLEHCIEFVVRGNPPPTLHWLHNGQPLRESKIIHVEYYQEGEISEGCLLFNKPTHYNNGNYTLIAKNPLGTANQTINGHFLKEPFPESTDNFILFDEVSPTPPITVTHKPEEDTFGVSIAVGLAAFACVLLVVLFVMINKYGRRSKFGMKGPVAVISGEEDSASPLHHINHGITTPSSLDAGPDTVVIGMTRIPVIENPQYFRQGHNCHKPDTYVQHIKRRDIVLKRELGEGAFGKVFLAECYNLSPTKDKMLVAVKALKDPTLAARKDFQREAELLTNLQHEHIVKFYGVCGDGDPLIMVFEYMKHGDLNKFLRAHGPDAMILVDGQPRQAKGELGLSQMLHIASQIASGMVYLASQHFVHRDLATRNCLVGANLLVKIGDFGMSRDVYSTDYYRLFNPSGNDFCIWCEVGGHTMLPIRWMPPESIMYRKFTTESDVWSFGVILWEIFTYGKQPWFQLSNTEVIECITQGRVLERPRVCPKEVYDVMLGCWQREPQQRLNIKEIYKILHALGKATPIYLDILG
Chain of truncated TrkC.T1 receptor (Q16288 32-839): as above
Chain of TrkC ECD (Homo sapiens) (Q16288 32-429): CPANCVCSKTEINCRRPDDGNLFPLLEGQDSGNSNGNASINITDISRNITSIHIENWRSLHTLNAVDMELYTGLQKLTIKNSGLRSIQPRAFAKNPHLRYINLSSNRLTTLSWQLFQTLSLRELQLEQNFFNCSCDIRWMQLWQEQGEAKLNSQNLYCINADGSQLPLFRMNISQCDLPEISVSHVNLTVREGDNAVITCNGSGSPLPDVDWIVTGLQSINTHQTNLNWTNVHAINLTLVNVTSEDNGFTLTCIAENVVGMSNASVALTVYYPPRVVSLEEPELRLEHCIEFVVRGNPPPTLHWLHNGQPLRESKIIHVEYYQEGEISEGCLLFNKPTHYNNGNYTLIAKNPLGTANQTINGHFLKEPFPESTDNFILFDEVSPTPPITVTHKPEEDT
Chain of TrkC-FL D5 (Homo sapiens) (Q16288 300-413): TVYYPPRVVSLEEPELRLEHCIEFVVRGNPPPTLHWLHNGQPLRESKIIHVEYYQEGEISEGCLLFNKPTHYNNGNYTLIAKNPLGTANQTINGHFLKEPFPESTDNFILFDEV

| Molecule | EC50 of bioactivity from dose-response curves (cell survival via TrkC-FL) [3] [nM] | fold-increase in ligand binding over controls (mean fluorescence intensity) [4] [fold] | fold-increase in ligand binding over controls (mean fluorescence intensity) [5] [fold] | other results |
| --- | --- | --- | --- | --- |
| Protein Disulfide Isomerase (PDI) (from UniProt P07237 18-508) (enzyme) | – | – | – | fold associated PDI (PDI/TrkC ratio) against TrkC-FL and TrkC-Δ-ICD [1]: 4 to 6 fold |
| NT-3 (from UniProt P20783) | – | – | – | Kd [2]: 0.05 nM |
| PTP-sigma (from UniProt Q13332) | – | – | – | Kd (TrkC ECD (Homo sapiens)): 9.3 nM |
| B1 | 0.2 | 7 | 9 | – |
| B2 | 8 | 3.7 | 5 | cell survival (MTT) of TrkC-FL-expressing cells in serum-free media, efficacy relative to 2 nM NT-3 (100%) [6]: 105 % of 2 nM NT-3 |
